The target of series [1] is T1, HbA1c-type αF8P (α-fructosyl-valyl-histidyl-leucyl-threonyl-prolyl-glutamyl-glutamyl-lysine).
T1 chain: VHLTPEEK

The target of series [2] is T2, HbC1c-type αF8P.
T2 chain: VHLTPKEK

For series [3], the target named is T3, HbS1c-type αF8P.
T3 chain: VHLTPVEK

B1: En42FX R108L (protein)
chain: MAPRANTKIIVVGGGGTMGSSTALHLLRAGYTPSNITVLDTYPIPSAQSAGYDLNKIFGISGANKHDLQLSLEAFDMWKNDPLFKPFFHNVGQMDVSSTEEGIKRLRLRYQSLLRAGIGLEKTNFLLESEDEILAKAPHFTREQIKGWKGLFCGDGGWLAAAKAINAIGQFLKEQGVKFGFGEAGTFKKPLFADADEKTCIGVETVDGTKYYADKVVLAAGAWSSTLVDLEEQCVSKAWVFAHIQLTPAEAAAYKNTPVIYDGDYGFFIEPDENGIIKVCDEFPGFTHFKMHQPYGSPVPKLISVPRSHAKHPTDTYPHASEVTIKKAINRFLPRFNDKELFNRAMCWCTDTADSNLLVCEHPRWKGFYLATGDSGHSFKLLPNIGKHVVELLEGRLESVFKDAWRWRPGSGDALKSRRAAPAKDLADMPGWRNEAKM
With B1, in series [1], the relative activity on substrate (reference, designated as 100%) amounted to 100%. In series [2], the relative activity on substrate (activity on HbA1c-type αF8P = 100%) turned out to be 13%. Also, in series [3], the “relative activity (HbS1c/HbA1c), fold over En42FX before modification” value is “improved by about 1.4 to 3.7 times” and the relative activity on substrate (activity on HbA1c-type αF8P = 100%) worked out at 150%.

B2: En42FX R105S (protein)
chain: MAPRANTKIIVVGGGGTMGSSTALHLLRAGYTPSNITVLDTYPIPSAQSAGYDLNKIFGISGANKHDLQLSLEAFDMWKNDPLFKPFFHNVGQMDVSSTEEGIKSLRRRYQSLLRAGIGLEKTNFLLESEDEILAKAPHFTREQIKGWKGLFCGDGGWLAAAKAINAIGQFLKEQGVKFGFGEAGTFKKPLFADADEKTCIGVETVDGTKYYADKVVLAAGAWSSTLVDLEEQCVSKAWVFAHIQLTPAEAAAYKNTPVIYDGDYGFFIEPDENGIIKVCDEFPGFTHFKMHQPYGSPVPKLISVPRSHAKHPTDTYPHASEVTIKKAINRFLPRFNDKELFNRAMCWCTDTADSNLLVCEHPRWKGFYLATGDSGHSFKLLPNIGKHVVELLEGRLESVFKDAWRWRPGSGDALKSRRAAPAKDLADMPGWRNEAKM
B2 returned a relative activity on substrate (reference, designated as 100%) in series [1] of 100%. In addition, in series [2], the relative activity on substrate (activity on HbA1c-type αF8P = 100%) stood at 13%. For the same protein, in series [3], the “relative activity (HbS1c/HbA1c), fold over En42FX before modification” value is on record as “improved by about 1.4 to 3.7 times” and the relative activity on substrate (activity on HbA1c-type αF8P = 100%) worked out at 56%.

B3: En42FX S112E (protein)
chain: MAPRANTKIIVVGGGGTMGSSTALHLLRAGYTPSNITVLDTYPIPSAQSAGYDLNKIFGISGANKHDLQLSLEAFDMWKNDPLFKPFFHNVGQMDVSSTEEGIKRLRRRYQELLRAGIGLEKTNFLLESEDEILAKAPHFTREQIKGWKGLFCGDGGWLAAAKAINAIGQFLKEQGVKFGFGEAGTFKKPLFADADEKTCIGVETVDGTKYYADKVVLAAGAWSSTLVDLEEQCVSKAWVFAHIQLTPAEAAAYKNTPVIYDGDYGFFIEPDENGIIKVCDEFPGFTHFKMHQPYGSPVPKLISVPRSHAKHPTDTYPHASEVTIKKAINRFLPRFNDKELFNRAMCWCTDTADSNLLVCEHPRWKGFYLATGDSGHSFKLLPNIGKHVVELLEGRLESVFKDAWRWRPGSGDALKSRRAAPAKDLADMPGWRNEAKM
On to B3, for which, in series [1], the relative activity on substrate (reference, designated as 100%) was 100%. Besides, the relative activity on substrate (activity on HbA1c-type αF8P = 100%) is 41% in series [2] and 82% in series [3].

B4: En42FX S112D (protein)
chain: MAPRANTKIIVVGGGGTMGSSTALHLLRAGYTPSNITVLDTYPIPSAQSAGYDLNKIFGISGANKHDLQLSLEAFDMWKNDPLFKPFFHNVGQMDVSSTEEGIKRLRRRYQDLLRAGIGLEKTNFLLESEDEILAKAPHFTREQIKGWKGLFCGDGGWLAAAKAINAIGQFLKEQGVKFGFGEAGTFKKPLFADADEKTCIGVETVDGTKYYADKVVLAAGAWSSTLVDLEEQCVSKAWVFAHIQLTPAEAAAYKNTPVIYDGDYGFFIEPDENGIIKVCDEFPGFTHFKMHQPYGSPVPKLISVPRSHAKHPTDTYPHASEVTIKKAINRFLPRFNDKELFNRAMCWCTDTADSNLLVCEHPRWKGFYLATGDSGHSFKLLPNIGKHVVELLEGRLESVFKDAWRWRPGSGDALKSRRAAPAKDLADMPGWRNEAKM
B4 registered a relative activity on substrate (reference, designated as 100%) in series [1] of 100%. In addition, the relative activity on substrate (activity on HbA1c-type αF8P = 100%) in series [2] turned out to be 16%; in series [3] it was 63%.

B5: En42FX R108E (protein)
chain: MAPRANTKIIVVGGGGTMGSSTALHLLRAGYTPSNITVLDTYPIPSAQSAGYDLNKIFGISGANKHDLQLSLEAFDMWKNDPLFKPFFHNVGQMDVSSTEEGIKRLRERYQSLLRAGIGLEKTNFLLESEDEILAKAPHFTREQIKGWKGLFCGDGGWLAAAKAINAIGQFLKEQGVKFGFGEAGTFKKPLFADADEKTCIGVETVDGTKYYADKVVLAAGAWSSTLVDLEEQCVSKAWVFAHIQLTPAEAAAYKNTPVIYDGDYGFFIEPDENGIIKVCDEFPGFTHFKMHQPYGSPVPKLISVPRSHAKHPTDTYPHASEVTIKKAINRFLPRFNDKELFNRAMCWCTDTADSNLLVCEHPRWKGFYLATGDSGHSFKLLPNIGKHVVELLEGRLESVFKDAWRWRPGSGDALKSRRAAPAKDLADMPGWRNEAKM
In series [1], B5 yielded a relative activity on substrate (reference, designated as 100%) of 100%. The relative activity on substrate (activity on HbA1c-type αF8P = 100%) came to 31% in series [2] and 100% in series [3].

B6: En42FX R108D (protein)
chain: MAPRANTKIIVVGGGGTMGSSTALHLLRAGYTPSNITVLDTYPIPSAQSAGYDLNKIFGISGANKHDLQLSLEAFDMWKNDPLFKPFFHNVGQMDVSSTEEGIKRLRDRYQSLLRAGIGLEKTNFLLESEDEILAKAPHFTREQIKGWKGLFCGDGGWLAAAKAINAIGQFLKEQGVKFGFGEAGTFKKPLFADADEKTCIGVETVDGTKYYADKVVLAAGAWSSTLVDLEEQCVSKAWVFAHIQLTPAEAAAYKNTPVIYDGDYGFFIEPDENGIIKVCDEFPGFTHFKMHQPYGSPVPKLISVPRSHAKHPTDTYPHASEVTIKKAINRFLPRFNDKELFNRAMCWCTDTADSNLLVCEHPRWKGFYLATGDSGHSFKLLPNIGKHVVELLEGRLESVFKDAWRWRPGSGDALKSRRAAPAKDLADMPGWRNEAKM
B6 returned a relative activity on substrate (reference, designated as 100%) in series [1] of 100%. Moreover, the relative activity on substrate (activity on HbA1c-type αF8P = 100%) was determined as 23% in series [2] and 95% in series [3].

B7: En42FX R108Q (protein)
chain: MAPRANTKIIVVGGGGTMGSSTALHLLRAGYTPSNITVLDTYPIPSAQSAGYDLNKIFGISGANKHDLQLSLEAFDMWKNDPLFKPFFHNVGQMDVSSTEEGIKRLRQRYQSLLRAGIGLEKTNFLLESEDEILAKAPHFTREQIKGWKGLFCGDGGWLAAAKAINAIGQFLKEQGVKFGFGEAGTFKKPLFADADEKTCIGVETVDGTKYYADKVVLAAGAWSSTLVDLEEQCVSKAWVFAHIQLTPAEAAAYKNTPVIYDGDYGFFIEPDENGIIKVCDEFPGFTHFKMHQPYGSPVPKLISVPRSHAKHPTDTYPHASEVTIKKAINRFLPRFNDKELFNRAMCWCTDTADSNLLVCEHPRWKGFYLATGDSGHSFKLLPNIGKHVVELLEGRLESVFKDAWRWRPGSGDALKSRRAAPAKDLADMPGWRNEAKM
B7 came in with a relative activity on substrate (reference, designated as 100%) in series [1] of 100%. Further, the figures for the relative activity on substrate (activity on HbA1c-type αF8P = 100%) in series [2] and in series [3] were 15% and 67%, respectively.

B8: CFP-T7-H40-3M (protein)
chain: MTSNRADTRVIVVGGGGTIGSSTALHLVRSGYAPANITVLDTFEIPSAQSAGHDLNKIMGIDHGNKVNLQMSLEARQMWKEDELFQPFFHNTGRMDCESTPKGIEKLKKYYQKLHDAGAGLEKTHAWLDNEDEILSKMPLLQRDQIQGWKAIWSQDGGWLAAAKAINAIGQFLKERGVKFGFGGAGSFKQPLFDDEGTTCIGVETADGTKYYADKVVLAAGAWSPTLVDLEDQCCSKAWVYAHIQLTPEEAAEYKGVPVVYNSEYGFFFEPDEFGVIKVCNEFPGFSRFKEHQPYGAPSPKRISVPRSHAKHPTDTYPDASEVSIKKAIATFLPRFQDKELFNRALCWCTDTADSTLLMCEHPKWKNFILATGDSGHSFKILPNVGKYVVELIEGRLPEEMAYQWRWRPGGDALKSRRAAPPKDLADMPGWKHDPKL
In series [1], B8 had a relative activity on substrate (reference, designated as 100%) of 100%. The relative activity on substrate (activity on HbA1c-type αF8P = 100%) in series [2] was found to be 11%; in series [3] it was 39%.

B9: CFP-T7-H40-3M K102E (protein)
chain: MTSNRADTRVIVVGGGGTIGSSTALHLVRSGYAPANITVLDTFEIPSAQSAGHDLNKIMGIDHGNKVNLQMSLEARQMWKEDELFQPFFHNTGRMDCESTPEGIEKLKKYYQKLHDAGAGLEKTHAWLDNEDEILSKMPLLQRDQIQGWKAIWSQDGGWLAAAKAINAIGQFLKERGVKFGFGGAGSFKQPLFDDEGTTCIGVETADGTKYYADKVVLAAGAWSPTLVDLEDQCCSKAWVYAHIQLTPEEAAEYKGVPVVYNSEYGFFFEPDEFGVIKVCNEFPGFSRFKEHQPYGAPSPKRISVPRSHAKHPTDTYPDASEVSIKKAIATFLPRFQDKELFNRALCWCTDTADSTLLMCEHPKWKNFILATGDSGHSFKILPNVGKYVVELIEGRLPEEMAYQWRWRPGGDALKSRRAAPPKDLADMPGWKHDPKL
The protein B9 registered a relative activity on substrate (reference, designated as 100%) in series [1] of 100%. In series [3], the “relative activity (HbS1c/HbA1c), fold over H40-3M before modification” value is given as “about 1.74 times greater than that prior to modification” and the relative activity on substrate (activity on HbA1c-type αF8P = 100%) was found to be 68%.

B10: CFP-T7-H40-3M K102A (protein)
chain: MTSNRADTRVIVVGGGGTIGSSTALHLVRSGYAPANITVLDTFEIPSAQSAGHDLNKIMGIDHGNKVNLQMSLEARQMWKEDELFQPFFHNTGRMDCESTPAGIEKLKKYYQKLHDAGAGLEKTHAWLDNEDEILSKMPLLQRDQIQGWKAIWSQDGGWLAAAKAINAIGQFLKERGVKFGFGGAGSFKQPLFDDEGTTCIGVETADGTKYYADKVVLAAGAWSPTLVDLEDQCCSKAWVYAHIQLTPEEAAEYKGVPVVYNSEYGFFFEPDEFGVIKVCNEFPGFSRFKEHQPYGAPSPKRISVPRSHAKHPTDTYPDASEVSIKKAIATFLPRFQDKELFNRALCWCTDTADSTLLMCEHPKWKNFILATGDSGHSFKILPNVGKYVVELIEGRLPEEMAYQWRWRPGGDALKSRRAAPPKDLADMPGWKHDPKL
For the protein B10, the relative activity on substrate (reference, designated as 100%) in series [1] worked out at 100%. In addition, in series [3], the “relative activity (HbS1c/HbA1c), fold over H40-3M before modification” value is “about 1.97 times greater than that prior to modification” and the relative activity on substrate (activity on HbA1c-type αF8P = 100%) turned out to be 77%.

These data come from US20200283741.
